Measured values reported in patent US20150010525A1, “Catalytic Tagging System to Study Macro-Molecular Interactions Using Engineered Ubiquitin Ligase and Ubiquitin-Like Proteins to Facilitate Substrate Identification” (THE REGENTS OF THE UNIVERSITY OF CALIFORNIA, priority 2012, published 2015).

What was measured:
cIAP1 = target: T1, cIAP1 (Homo sapiens, UniProt P61081+Q13490); test: SILAC mass spectrometry screen for cIAP1 substrates with NEDDylator^cIAP1 in apoptotic Jurkat cell lysate; format: biochemical; details: Light lysate with NEDDylator^cIAP1, Heavy lysate with Ubc12
T1 construct: cIAP1(ΔR) (residues 1-555); GST (N, cleaved yes); made in house; host or cells: E. coli BL21 (DE3)
Experimental: Jurkat cells were grown in media containing either light or heavy isotopes of lysine and arginine and induced to undergo apoptosis with STS. Light cell extracts were incubated with the respective catalytic tagging system for each of the two IAPs and the heavy extracts labeled only with the wild-type NEDD8 E2, Ubc12. […] 100 mg ^13C6^15N2 L-Lys.2HCl and 86 mg ^13C6 L-Arg.HCl (Cambridge Isotope) were added to the same amount of medium to generate the “Heavy” medium. Jurkat cells were cultured separately in “Light” or “Heavy” medium for 7 days to allow for thorough isotope incorporation. For IAP substrate identification, 400 million cells were treated with 2 μM STS for 4 hours, harvested, lysed in M-PER mammalian protein extraction buffer (Thermo/Pierce) in the presence of protease inhibitors (100× ProteoBlock cocktail, Fermentas) and mixed with cell lysate prepared from 400 million untreated cells. […] Purified NEDDylated proteins were trypsinized and analyzed with tandem mass spectrometry (LC-MS/MS).
(§1) For SILAC experiments, Jurkat cells were cultured separately in “Light” (supplemented with regular Lys and Arg) or “Heavy” (supplemented with ^13C6^15N2 Lys and ^13C6 Arg) medium for 7 days to allow for thorough isotope incorporation. Apoptotic “Light” and “Heavy” cell extracts were prepared individually. The lysates were cleared by spinning and then diluted in 50 mM HEPES pH 7.4, 150 mM NaCl to 5 mg/ml and supplemented with 5 mM ATP, 10 mM MgCl2. Endogenous NEDD8 E1 is cell lysate was used to catalyze the reaction. HB-NEDD8 was added to both lysate at mass ratio 1:500; the catalytic tagging system was added to the “Light” lysate at mass ratio 1:1000. Equal molar of Ubc12 was added to the “Heavy” lysate. […] NEDDylated proteins were separated by one-dimensional SDS-PAGE, and trypsinized for LC-MS/MS analysis.
For liquid chromatography—Tandem mass spectrometry (LC-MS/MS) analysis, the tryptic peptides were first desalted and concentrated with a C18 Ziptip (Millipore). LC-MS/MS was carried out by reverse phase LC interfaced with a LTQ-Orbitrap (ThermoFisher Scientific) hybrid mass spectrometer. A nanoflow HPLC (NanoAcquity UPLC system, Waters Corporation) was equipped with a trap column (180 μm×20 mm, 5 μm SymmetryC18, from Waters) and an analytical column (100 μm×100 mm, 1.7 μm BEH130C18, from Waters). Peptides were eluted over a linear gradient from 2% solvent A (0.1% formic acid in water) to 35% solvent B (0.1% formic acid in acetonitrile) at 350 nL/min over 35 min. MS and MS/MS spectra were acquired in a data-dependent mode with MS spectra acquired in the Orbitrap at 30,000 resolving power and 6 CID MS/MS spectra acquired per MS in the LTQ linear ion trap. Dynamic exclusion was set at 90 seconds to prevent repeated MS/MS on the same precursor ion.
The identified peptides were searched against a random decoy protein database for evaluating the false positive rates. […] The decoy peptides were removed from the data. Protein IDs were assigned only when at least two unique peptides were identified from the same protein. For SILAC experiment, Light/Heavy ratios for the identified peptides were calculated, using ProteinProspector. The media Light/Heavy ratios of all the peptides identified for each protein were used to represent the Light/Heavy ratio of the protein.

XIAP = target: T2, XIAP (Homo sapiens, UniProt P61081+P98170); test: SILAC mass spectrometry screen for XIAP substrates with NEDDylator^XIAP in apoptotic Jurkat cell lysate; format: biochemical; details: Heavy lysate with Ubc12
T2 construct: The N-terminus (residues 1-434) of XIAP was then fused via a flexible Gly-Gly-Ser-Gly linker to the NEDD8 E2, Ubc12; GST (N, cleaved yes); made in house; host or cells: E. coli BL21 (DE3)
Experimental: Jurkat cells were grown in media containing either light or heavy isotopes of lysine and arginine and induced to undergo apoptosis with STS. Light cell extracts were incubated with the respective catalytic tagging system for each of the two IAPs and the heavy extracts labeled only with the wild-type NEDD8 E2, Ubc12. 64 mg regular L-Lys and 83.6 mg L-Arg.HCl were added to 1 liter RPMI-1640 minus L-Lys and L-Arg (Thermo/Pierce), 10% fetal bovine serum (FBS) to generate “Light” medium. 100 mg ^13C6^15N2 L-Lys.2HCl and 86 mg ^13C6 L-Arg.HCl (Cambridge Isotope) were added to the same amount of medium to generate the “Heavy” medium. Jurkat cells were cultured separately in “Light” or “Heavy” medium for 7 days to allow for thorough isotope incorporation. For IAP substrate identification, 400 million cells were treated with 2 μM STS for 4 hours, harvested, lysed in M-PER mammalian protein extraction buffer (Thermo/Pierce) in the presence of protease inhibitors (100× ProteoBlock cocktail, Fermentas) and mixed with cell lysate prepared from 400 million untreated cells. The NEDDylated proteins were isolated under denaturing conditions via the HB-NEDD8 tag using a tandem affinity pull down procedure (Tagwerker et al., Mol Cell Proteomics 5:737-748 (2006)) (FIG. 11). Purified NEDDylated proteins were trypsinized and analyzed with tandem mass spectrometry (LC-MS/MS).
as §1
For liquid chromatography—Tandem mass spectrometry (LC-MS/MS) analysis, the tryptic peptides were first desalted and concentrated with a C18 Ziptip (Millipore). LC-MS/MS was carried out by reverse phase LC interfaced with a LTQ-Orbitrap (ThermoFisher Scientific) hybrid mass spectrometer. A nanoflow HPLC (NanoAcquity UPLC system, Waters Corporation) was equipped with a trap column (180 μm×20 mm, 5 μm SymmetryC18, from Waters) and an analytical column (100 μm×100 mm, 1.7 μm BEH130C18, from Waters). […]

T1 sequence (Q13490+P61081 fused): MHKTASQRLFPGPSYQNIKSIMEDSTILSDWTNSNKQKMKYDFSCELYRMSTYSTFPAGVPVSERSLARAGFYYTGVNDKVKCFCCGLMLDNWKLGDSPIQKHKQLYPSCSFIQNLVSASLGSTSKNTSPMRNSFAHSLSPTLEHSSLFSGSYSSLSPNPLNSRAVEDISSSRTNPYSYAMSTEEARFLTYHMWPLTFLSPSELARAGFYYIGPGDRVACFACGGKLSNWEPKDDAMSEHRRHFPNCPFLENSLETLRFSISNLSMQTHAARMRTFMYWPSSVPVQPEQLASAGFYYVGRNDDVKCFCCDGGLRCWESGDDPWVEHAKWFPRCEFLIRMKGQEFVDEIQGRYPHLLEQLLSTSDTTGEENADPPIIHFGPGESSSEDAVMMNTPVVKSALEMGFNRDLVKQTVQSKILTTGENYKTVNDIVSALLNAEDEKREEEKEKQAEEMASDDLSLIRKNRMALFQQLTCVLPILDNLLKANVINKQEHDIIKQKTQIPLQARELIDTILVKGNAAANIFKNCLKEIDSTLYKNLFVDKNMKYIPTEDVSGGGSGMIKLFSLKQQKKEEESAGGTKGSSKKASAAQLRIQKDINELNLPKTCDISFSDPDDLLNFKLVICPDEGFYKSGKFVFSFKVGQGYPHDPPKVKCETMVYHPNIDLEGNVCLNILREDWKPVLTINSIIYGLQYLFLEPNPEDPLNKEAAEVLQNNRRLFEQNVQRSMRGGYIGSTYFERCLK
T2 sequence (P98170+P61081 fused): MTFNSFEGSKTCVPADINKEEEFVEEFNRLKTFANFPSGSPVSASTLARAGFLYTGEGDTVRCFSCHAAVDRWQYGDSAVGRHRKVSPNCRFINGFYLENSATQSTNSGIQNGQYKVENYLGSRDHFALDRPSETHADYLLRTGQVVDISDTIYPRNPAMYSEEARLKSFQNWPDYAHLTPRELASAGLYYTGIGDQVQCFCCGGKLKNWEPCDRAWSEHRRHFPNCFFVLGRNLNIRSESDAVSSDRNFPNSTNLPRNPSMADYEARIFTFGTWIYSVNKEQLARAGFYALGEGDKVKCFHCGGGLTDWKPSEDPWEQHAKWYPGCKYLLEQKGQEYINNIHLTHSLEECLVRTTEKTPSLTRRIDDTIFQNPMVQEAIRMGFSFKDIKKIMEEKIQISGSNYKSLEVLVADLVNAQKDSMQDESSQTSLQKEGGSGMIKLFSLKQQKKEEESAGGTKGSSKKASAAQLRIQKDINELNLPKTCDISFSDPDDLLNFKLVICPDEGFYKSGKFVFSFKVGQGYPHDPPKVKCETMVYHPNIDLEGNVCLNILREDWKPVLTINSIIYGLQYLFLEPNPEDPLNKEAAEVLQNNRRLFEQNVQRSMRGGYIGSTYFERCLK

B1: Serine/threonine-protein phosphatase PGAM5, mitochondrial: phosphoglycerate mutase family member 5, dimeric protein phosphatase (protein, UniProt Q96HS1 1-289, looked up)
chain: MAFRQALQLAACGLAGGSAAVLFSAVAVGKPRAGGDAEPRPAEPPAWAGGARPGPGVWDPNWDRREPLSLINVRKRNVESGEEELASKLDHYKAKATRHIFLIRHSQYHVDGSLEKDRTLTPLGREQAELTGLRLASLGLKFNKIVHSSMTRAIETTDIISRHLPGVCKVSTDLLREGAPIEPDPPVSHWKPEAVQYYEDGARIEAAFRNYIHRADARQEEDSYEIFICHANVIRYIVCRALQFPPEGWLRLSLNNGSITHLVIRPNGRVALRTLGDTGFMPPDKITRS
modifications: full-length
notes: phosphoglycerate mutase family member 5, dimeric protein phosphatase
Question: With B1 as the molecule, how does the “L/H (Light/Heavy ratio)” value (cIAP1) read?
Answer: 23.7

Question: And the “L/H (Light/Heavy ratio)” value (XIAP)?
Answer: 5.88
